This is an account of results in patent publication US7094581B2, “Hyaluronan synthases and methods of making and using same” (The Board of Regents of the University of Oklahoma, priority 1998, dated 2006).

The data set concerns spHAS. As to the kind of experiment: Kinetic analysis of Cys-mutants of spHAS, normalized to spHAS protein. Format: biochemical, Streptococcus pyogenes. Also on record: Vmax: unit not given here. The procedure:
Kinetic analyses of the single and multiple spHAS Cys-mutants were performed to investigate the possibility that multiple Cys residues are critical in a coordinated way for enzyme activity. […] The spHAS(C225S) and spHAS(C280A) mutants had the most reduced activities with Vmax values at 30–50% of wildtype. The spHAS(C261,280A) and Cys-null mutant had 50–75% of the wildtype activity.
Membranes were isolated from E. coli SURE strains expressing mutant or wildtype spHAS, fractionated by SDS-PAGE according to the procedure of Laemmli (1970) and the proteins were electrotransferred to nitrocellulose as described by Towbin et al. (1979) with minor modifications (Tlapak-Simmons, et al., 1998). Western analysis was performed by incubating these blots for 1 h at room temperature with a biotinylated anti-His5 monoclonal antibody, as the primary antibody, then washing and incubating with 3 μg/ml ^125I-streptavidin, prepared as described hereinabove. After 1 h at room temperature, the blots were washed, dried and exposed to a Phosphoscreen for 1 to 72 h. The screens were analyzed using a Molecular Dynamics Phosphoimager and integrated density values were obtained for each spHAS band. Integrated density values were also obtained for increasing amounts of affinity-purified spHAS (Tlapak-Simmons et al., 1999a), which was used as an internal standard in the same blot to generate a standard curve. Dilutions of membrane samples were made as necessary to ensure that all estimates of HAS quantity were in the linear range of the assay. Those membrane samples giving a linear response with increasing protein were then compared to the standard curve to calculate the amount of spHAS present per μl membrane suspension. These values were then used to normalize the kinetic results obtained using membranes from the various spHAS mutants.
E. coli SURE cells, previously transformed with plasmids containing wildtype or mutant spHAS genes, were grown to an A600 of ˜1.2 and induced with 1 mM isopropyl thio-β-D-galactoside for three h. Cells were harvested and membranes were prepared as described previously (Tlapak-Simmons, et al., 1999a). The activities of mutant spHAS variants were assessed by measuring their Vmax and Km values in isolated membranes, normalized as described above for the amount of enzyme expressed. The Km values were determined using a descending paper chromatography assay (Tlapak-Simmons, et al., 1999b), holding one UDP-sugar substrate constant and varying the other from 0.01 to 4 mM. Data were analyzed by linear regression using Haynes-Wolf plots for UDP-GIcUA or Hill plots for UDP-GIcNAc.

Read-outs that look alike come from different tables or passages of the source.

B1: Wildtype: wildtype Streptococcus pyogenes hyaluronan synthase (spHAS-His6), SEQ ID NO:4 (protein)
chain: MPIFKKTLIVLSFIFLISILIYLNMYLFGTSTVGIYGVILITYLVIKLGLSFLYEPFKGNPHDYKVAAVIPSYNEDAESLLETLKSVLAQTYPLSEIYIVDDGSSNTDAIQLIEEYVNREVDICRNVIVHRSLVNKGKRHAQAWAFERSDADVFLTVDSDTYIYPNALEELLKSFNDETVYAATGHLNARNRQTNLLTRLTDIRYDNAFGVERAAQSLTGNILVCSGPLSIYRREVIIPNLERYKNQTFLGLPVSIGDDRCLTNYAIDLGRTVYQSTARCDTDVPFQLKSYLKQQNRWNKSFFRESIISVKKILSNPIVALWTIFEVVMFMMLIVAIGNLLFNQAIQLDLIKLFAFLSIIFIVALCRNVHYMVKHPASFLLSPLYGILHLFVLQPLKLYSLCTIKNTEWGTRKKVTIFK
modifications: His6 tag; Streptococcus pyogenes
Broadly, the Km is the substrate concentration at which the rate is half of its maximum. For B1, the “Hill number” value (UDP-GlcNAc utilization) is listed as 1.8 ± 0.1. Further, the Km was determined as 398 ± 112 µM (at 0.5 mM UDP-GlcUA, read-out: Km UDP-GlcNAc) and 50.4 ± 10.8 µM (at 1.5 mM UDP-GlcNAc, read-out: Km UDP-GlcUA). Further, the Vmax (both substrates incorporated per hour per pmol spHAS) stood at 791 ± 215.
